# Test results published in the supplement of paper PMC7877785.
# ± gives the uncertainty stated by the source.
# Test: self-splicing fitness, log relative to wild type (ln ratio); higher = more splicing; Tetrahymena group I intron in knt gene, E. coli kanamycin selection, DiMSum; sequences stand for … in CUCUCU…GGAGGGAAAAGUUAUCAGGCAUGCACCUGGUAGCUAGUCUUUAAACCAAUAGAUUGCAUCGGUUUAAAAGGCAAGACCGUCAAAUUGCGGGAAAGGGGUCAACAGCCGUUCAGUACCAAGUCUCAGGGGAAACUUUGAGAUGGCCUUGCAAAGGGUAUGGUAAUAAGCUGACGGACAUGGUCCUAACCACGCAGCCAAGUCCUAAGUCAACAGAUCUUCUGUUGAUAUGGAUGCAGUUCACAGACUAAAUGUCGGUCGGGGAAGAUGUAUUCUUCUCAUAAGAUAUAGUCGGACCUCUCCUUAAUGGGAGCUAGCGGAUGAAGUGAUGCAACACUGGAGCCGCUGGGAACUAAUUUGUAUGCGAAAGUAUAUUGAUUAGUUUUGGAGUACUCGUGGUCG
# Outline: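 Pooled colonies went to amplicon sequencing on an Illumina HiSeq 2500 after six replicate transformations. The plates were LB agar with 100 μg/mL carbenicillin, 50 μM IPTG and 0.2% rhamnose, with or without 25 μg/mL kanamycin, incubated overnight at 37°C or 30°C. The E. coli BL21(DE3) library had all eight P1ex-region intron nucleotides randomised, the intron placed in the knt kanamycin-resistance gene on pET-22b(+). DiMSum fitness is the error-weighted combination of replicate fold changes, kanamycin against none, normalised to wild type.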
Sequence,self-splicing fitness (ln) (30 °C),self-splicing fitness (ln) (37 °C)
GCUGAGCAAUAUUACGCAUC,-1.72 ± 0.26,-0.374 ± 0.33
GCUGAGCAAUAUUACGCAUU,-2.67 ± 0.13,-1.63 ± 0.2
GCUGAGCAAUAUUACGCCUG,-1.28 ± 0.23,–
GCUGAGCAAUAUUACGCGUG,-1.54 ± 0.11,-0.878 ± 0.13
GCUGAGCAAUAUUACGCUCG,-2.7 ± 0.36,-0.729 ± 0.26
GCUGAGCAAUAUUACGGAAC,-2.25 ± 0.3,-0.857 ± 0.3
GCUGAGCAAUAUUACGGACG,-0.688 ± 0.1,-0.674 ± 0.11
GCUGAGCAAUAUUACGGACU,-2.6 ± 0.36,-1.36 ± 0.24
GCUGAGCAAUAUUACGGUAA,-3.07 ± 0.29,-2.44 ± 0.23
GCUGAGCAAUAUUACGGUAU,-2.63 ± 0.2,-2.41 ± 0.2
GCUGAGCAAUAUUACGGUCC,-2.99 ± 0.28,-0.889 ± 0.26
GCUGAGCAAUAUUACGGUCG,-2.59 ± 0.17,-2.24 ± 0.22
GCUGAGCAAUAUUACGGUUA,-1.74 ± 0.14,-0.208 ± 0.1
GCUGAGCAAUAUUACGUAUA,-3.69 ± 0.26,-2.22 ± 0.29
GCUGAGCAAUAUUACGUCAC,-2.4 ± 0.37,-1.66 ± 0.36
GCUGAGCAAUAUUACGUGUU,-3.4 ± 0.2,-2.37 ± 0.21
GCUGAGCAAUAUUACGUUCC,-1.48 ± 0.2,-1.84 ± 0.35
GCUUAGCAAUAUUACGAAUA,-2.05 ± 0.25,-0.645 ± 0.18
GCUUAGCAAUAUUACGAAUG,-1.79 ± 0.1,-1.33 ± 0.13
GCUUAGCAAUAUUACGAGAU,-1.36 ± 0.14,-1.02 ± 0.12

Sequence,self-splicing fitness (ln) (30 °C),self-splicing fitness (ln) (37 °C)
GCUUAGCAAUAUUACGAUCC,-0.0566 ± 0.1,0.226 ± 0.13
GCUUAGCAAUAUUACGCACC,-0.796 ± 0.13,0.115 ± 0.16
GCUUAGCAAUAUUACGCUGU,-2.25 ± 0.18,-1.25 ± 0.18
GCUUAGCAAUAUUACGGAUG,-1.71 ± 0.14,-1.05 ± 0.13
GCUUAGCAAUAUUACGGAUU,-1.15 ± 0.1,-0.911 ± 0.11
GCUUAGCAAUAUUACGGCGU,-0.354 ± 0.1,-0.748 ± 0.11
GCUUAGCAAUAUUACGGGCG,-1.44 ± 0.082,-0.621 ± 0.098
GCUUAGCAAUAUUACGGUUG,-3.95 ± 0.18,-1.91 ± 0.12
GCUUAGCAAUAUUACGUACC,-0.204 ± 0.2,1.1 ± 0.21
GCUUAGCAAUAUUACGUAUC,-1.32 ± 0.083,0.415 ± 0.093
GCUUAGCAAUAUUACGUCAG,-2.36 ± 0.22,–
GCUUAGCAAUAUUACGUGAG,-1.45 ± 0.07,-1.2 ± 0.071
GCUUAGCAAUAUUACGUGCG,-1.23 ± 0.09,-0.6 ± 0.12
GCUUAGCAAUAUUACGUGGG,-1.53 ± 0.093,-1.72 ± 0.1
GCUUAGCAAUAUUACGUGGU,-2.81 ± 0.15,-1.93 ± 0.16
GCUUAGCAAUAUUACGUUCA,-1.01 ± 0.15,-1.21 ± 0.17
GCUUAGCAAUAUUACGUUGC,-2.46 ± 0.15,-0.535 ± 0.12
GGAAAGCAAUAUUACGAAUA,-2.36 ± 0.22,-1.19 ± 0.19
GGAAAGCAAUAUUACGAAUG,-3.53 ± 0.29,-0.816 ± 0.25
GGAAAGCAAUAUUACGACAC,-0.204 ± 0.15,-0.206 ± 0.2

Sequence,self-splicing fitness (ln) (30 °C),self-splicing fitness (ln) (37 °C)
GGAAAGCAAUAUUACGAUAA,-1.32 ± 0.14,-0.198 ± 0.16
GGAAAGCAAUAUUACGAUUG,-3.56 ± 0.28,-1.82 ± 0.23
GGAAAGCAAUAUUACGCACC,-1.43 ± 0.21,–
GGAAAGCAAUAUUACGCACG,-1.16 ± 0.19,0.0479 ± 0.17
GGAAAGCAAUAUUACGCACU,-1.35 ± 0.22,-1.57 ± 0.3
GGAAAGCAAUAUUACGCAGC,-2.07 ± 0.22,-1.53 ± 0.23
GGAAAGCAAUAUUACGCGCA,-0.291 ± 0.16,-0.139 ± 0.17
GGAAAGCAAUAUUACGGAGG,-3.5 ± 0.24,-2.31 ± 0.21
GGAAAGCAAUAUUACGGGGA,-2.87 ± 0.15,-2.9 ± 0.26
GGAAAGCAAUAUUACGGGGC,-3.54 ± 0.28,-0.864 ± 0.21
GGAAAGCAAUAUUACGGGUA,-1.86 ± 0.17,-1.32 ± 0.15
GGAAAGCAAUAUUACGGUGA,-1.01 ± 0.15,-0.6 ± 0.16
GGAAAGCAAUAUUACGGUGG,-1.84 ± 0.16,-1.53 ± 0.16
GGAAAGCAAUAUUACGUAGC,-2.63 ± 0.22,-2.34 ± 0.23
GGAAAGCAAUAUUACGUCGU,-0.732 ± 0.093,-0.254 ± 0.12
GGAAAGCAAUAUUACGUUUC,-3.04 ± 0.21,-2.5 ± 0.28
GGAAAGCAAUAUUACGUUUU,-3.05 ± 0.14,-2.18 ± 0.18
GGACAGCAAUAUUACGACGC,-0.126 ± 0.065,0.658 ± 0.11
GGACAGCAAUAUUACGACGU,-0.177 ± 0.06,0.587 ± 0.075
GGACAGCAAUAUUACGAGUC,-4.31 ± 0.2,-2.75 ± 0.15
